This series can be described thus: soluble fraction after stress (log2 fold change); higher = more stays soluble; pooled small domains, quantitative proteomics. As to conditions: stress: pH 4. The procedure, abridged: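 Following acid stress at pH 4, the amount of each small protein domain still soluble was measured in pooled custom libraries by high-throughput quantitative proteomics. Its fold change, on a log2 scale, is higher when more of the domain stayed soluble. This fold change is taken as a measure of aggregation propensity.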

Regarding “HMSSLREQVADALRAHLVSGRMRPGVLYSAPKLAAEFGVSATPVREAMLDLVSEGLVDVVRNKGFRVT”, the “soluble fraction (log2)” value was 0.018.

With “HMSSPPNPQLAKRYISYSVDDIARLFGIHRHTVREWIKRGLPVIDQQRPLLVQGADLAEFLRKRRA”, the “soluble fraction (log2)” value was determined as 0.162.

Turning to “HMSSPVIQINTRNDGWIIKLLQPAVEKDVLEGYLADVGLKLQSQMMEKILAAPAGTEFHIKRGSNILTE”, the “soluble fraction (log2)” value is -0.133. As for “HMSSQADEEALFKLLAANPYSDEQLEEIRIAIGSGIAYKDIIRIADIGNTAERMKQLRLEFTKDTAN”, the figure is -0.353; as for “HMSSQGSLEKGYSALLDGRLDDAALAYGAALAANPMERDALLGLAYVAHSKGRREEAQALYRKVLR”, -0.53; as for “HMSSSTFVGRVAVITIGEARQNSPAEARFKDRHGTTHYVMVEPMEDVVFKQGDKVLLVESAGATFKVIEPA”, -0.00194. Consider “HMSSTSISFNDFQKYWLSNDIKSFQLREDKMTVQGSLKNGTAYETVVPSERLFQFIGQHPKD”, for which the “soluble fraction (log2)” value is -0.127. “HMSSVDLLSERERQVLARISRGMSNEEIAAELAITPRTVRNHLANIYGKIDVHSRAEAVVWARERGIT”: the “soluble fraction (log2)” value is -0.152.

Consider “HMSSVEQAILETLSKEHSHLTSLQVFEEIRGRLPAVNQSTVYRALERLVEQGVVSVSDMGTHAAVYE”, for which the “soluble fraction (log2)” value came out at 0.119. As for “HMSSVMMPDLTGESAIVAMERLQQLGLLPKVEEVDSYREPGIVLEQLPRAGEKIKRGRIAILKVSS”, the figure is -0.131.

“HMSSVTGMERFLSSGAVKGIGKTMAARIVEHFGTETMTVLESFPERLAEVPGIGAKKAEAIGQSYSEISD”: the “soluble fraction (log2)” value was -0.259.

As for “HMSSVVARRARIATLVVETSVASQEELGRLLADEGITVTQATLSRDLDALGAVKVLSADGGTRYRIPGQ”, the “soluble fraction (log2)” value was -0.45. Then “HMSSVVVARTWTDTTGDFKVEAELLGVEGGLVRLKKEDGTVLSVPIAKLSTADRTFLQENQP”, with 0.22. Then “HMSSWEDNFSYWIRNVAETLDKDLLNVANSKLEKIIINAALDQTNGKKNEAAILLGLGRNTLAKKIKELG”, with -0.929; and “HMSSWEEQLKIWAKNELASGNTDILARATVSFEQILIEAALTHTGGRKKTAAELLGWGRNTLTRKIKELHI”, with -0.743. As for “HMSSWEVLAEPIQTVMRRYGVPGAYEKLKEVTRGKSLTAEALHALIRSLDIPQADKERLLALTPAAWA”, the figure is -0.393; as for “HMSSYAEVMERSKYLQLHKYKIWKSETDGFWRTYYLNEQGKRKMKKLKHSEDMIDFVIEYVQNNE”, -1.06; as for “HMSTDDILSSITALRLASVQFQLGQFDPALDSLKLVKEQAWSGAKNILAGDIQLAKGDKEAAKASYQQAQQ”, -0.542. As for “HMSTDIPFNIFSQKWNADEIDSIVVENNKIEGKTKDNKKFSTYAPDELLTSLMENHKNPNVIVEFRAP”, the “soluble fraction (log2)” value was -0.646.

Turning to “HMSTDKIDIVSSAILSSLKDNDGFIGLTDKSPPPEIYTAFRVSKKVFKQAIGALYKQRRITLESSGIRLIS”, the “soluble fraction (log2)” value was -0.107. As to “HMSTDSTQLLGFNKTGEELPIYKEANEENKFAEIPQNVYVKNFGQNGEFTKIKYLDQEGYVKTAGLK”, the “soluble fraction (log2)” value turned out to be 0.199. As for “HMSTEEYDRGYEQGLEEAAKADDAWVANLIKIYSQNTPESMPETMKGRLDAFLYEQQRRAQSVPEM”, the figure is -1.09; as for “HMSTIAAMADPRAWALEMLGFPPGTVKPSKREIQVRFRESLRDVHPDHGGDSRTASASINDLSEARRVLLS”, 0.0192. Then “HMSTLGIRIKHYRTDSNLTQKELAGLINVKRDALANWETDRALPDVMNLKKLAEVFQVSTDELLQV”, with -0.225. On to “HMSTLTGTQRAAVVLMQMSPPNAARVMAQFTDAEAEEIAAEIVRLRKVDPEVAEQIMKDFHEAALSS”, for which the “soluble fraction (log2)” value is -0.645. For “HMSTLTLTSGTYAVGENIKAGKYTIMGSGSIAISSSGKARVNSNLTADRKDYVLNDDETIKIKGKAQFIPI”, the “soluble fraction (log2)” value amounted to 0.0425.

As for “HMSTMKIVRVKSNLKIGQEITSKDIEVVEVGAYNMPSEVMKNSEDVIGKYASAEMIKGEYVLAAKISDTP”, the “soluble fraction (log2)” value is -0.902. Then “HMSTMNRLPRHEQILKLVRANGFMPIEELARLLDVTPQTIRRDINTLSEENLLRRFHGGAALGPSVE”, with 0.255. Turning to “HMSTMTGTVDTPGASLNVRTGAWGPIVGQLAHGSKVTIIGSSGDWFKISYNGATRYVHKNYVNTT”, the “soluble fraction (log2)” value was -0.0624. As for “HMSTMVEIPNVVGMTIKEAKEALGNLGLSISKISGSNEDSAIVTEVSPAPGSSVKRDESITLVGQPK”, the figure is 0.12; as for “HMSTPAKVTPTNPIVKQLFNAAETQIKNKDIQNAIASYEKADTLTTDEKVKQYIHYQLSTLKDDN”, 0.0384.

As for “HMSTPERQEVLDILKRQGEMTPLQIAGQISRTSKSVSNILSKLKREGFVANGAKYGSWVSTES”, the “soluble fraction (log2)” value stood at 0.0778. Take “HMSTPTVDTKTKLDLYNLLYKKDLNYLDAYNFVLDNFGSDNIDIMFKMLGLDFTNWVIENKPE”: the “soluble fraction (log2)” value was 0.0493.

On to “HMSTQYKTGHYKTTDALNLRASYSTSSNVLLTIPKGKTIVVTRVHNNEWGQVEYNGKTGWIYLEYTAYTES”, for which the “soluble fraction (log2)” value is -0.387. Turning to “HMSTSAAELLRTARQQAGMSQSAVAELAKTSQSAIAMYEAGNREPSLPVLQRLLAATGHQLSLSVLP”, the “soluble fraction (log2)” value was 0.00437. As for “HMSTTILSFQNRVVIETLHNEGRSLRYIANYLGFSKATIFNELHRLNSEYRAELAQADFERKVSQR”, the figure is -0.53. Then “HMSTVAETVYNEIRDDILYGELQPGVKLKLEALRERYSVGVNTLREVLNRLVASGFVFVEGQKGFRVV”, with -0.377.

With “HMSTVEKDSELGGNFRIASYPTGKGQISEAIRSMIVRAKQVGVNIRLNTEATEEPLRALAPNAVILATG”, the “soluble fraction (log2)” value came to 0.18. Then “HMSTVELPVQINGKVRGRITVPANAGQEDVKQAALADSKVQRYIEGASIRKVIVVPRKLVNIVV”, with at least 0.43; and “HMSTVTGLINYLSSGLIKGVGEATARKLVDHFGLDVLDIIQFNPQRLLEVDGIGEARAEMIASSFSEQK”, with -1.48. As for “HMSVDIIPGKADQKVRLIHDPAIVGVTTGGVKTAGPHTLIQIELGPNERPYKRLSLLELIPEG”, the figure is 0.00535. As for “HMSVDVGMQLRKLREERKISMRELARLSGLSANALSMIERGLTSPSVSTLNKLAGALEVPITAFFRI”, the figure is -0.00213. As to “HMSVEVPNLIGKTLDQVDIDLKSLDLSFVILDSARYNSSFKPLSVIDHQPISGAKVKVNRKIYLTINPS”, the “soluble fraction (log2)” value was -0.358. As for “HMSVKIELNENEQAIFTAVQKVNEAVLPELRAQFSDMSNKAWDNSVKMLTKNNLLKVSKEGEILYIRM”, the figure is 0.0421; as for “HMSVKSVSLRKISYKVRRGDSLYNIAKNFSLSINDITHWNSINKKSYLQPGQRLTLYINPRN”, 0.193; as for “HMSVKVFRDQILLNNDSDKMLQLSFSNLFGQKVLETSISPGKSAISTGNLPPGIYFITTSPATGVMRVII”, -0.544.

With “HMSVLRLGNRGPDVRKLQLLLNSTLVPSPQLTVDGDFGKRTEQAVVTFQQMRGLPQDGIVGQRTWALLGQT”, the “soluble fraction (log2)” value worked out at 0.241.

On to “HMSVLSVASKNQAINPGQVVALLKDGIKLNDDGRVEILDNNNNIRYNEKGNLLSIEERVKEFLDANPHFRQ”, for which the “soluble fraction (log2)” value was -0.134. Consider “HMSVLVLPMLKELTHEDREVVELFYLNDMSVREIALIISVPIGTVKSRLHRARAQLKHQIVNLNQ”, for which the “soluble fraction (log2)” value was -1.18. As for “HMSVPVNAPMPGTILDIKVKAGAAVKAGDVVMILEAMKMENEISAPQDGTIASIDVRKGDTVNSGDVLYTM”, the figure is -0.00195; as for “HMSVSVNAPMPGNILDVRAKTGESIQKGQVIVILEAMKMENEIMAPQDGKISSINTSKGSTVNSGDLLFTM”, -0.693. In the case of “HMSVTMPNLVGLDEQTAVTRINSSNLSYGSTNYVHSDHEAGVVFKQSTPAYTEVDEHTKIYIWVSLGPEE”, the “soluble fraction (log2)” value was -0.145.

“HMSVTPLLDATEKDKTKYRDLWLVAVVKNGVNYARKYKFGYVYAWLYRHDRDWLLQVNNQHKIPNIT”: the “soluble fraction (log2)” value was -0.107. Take “HMSVTVMVLRAAGDIQAGTEITDKHLATVEVGEYGLPEGIINDKDSILGKIALTDIAKGDYFFSQKLG”: the “soluble fraction (log2)” value was -1.31. Take “HMSVVKPIYIGMMTSEVEAIMGKPFEVITNNNSKNNQLWIYKYQDKRSVMLTFTNYKLIKIE”: the “soluble fraction (log2)” value was -0.0356. In the case of “HMSWDNELLERAHKIIELYPQKRSALGPLLYLAQEKDGFISDDSIVEISNLVDITEVQVKSVSSFYSMY”, the “soluble fraction (log2)” value was -0.0573.

With “HMSWGDVKLTMWGAEEDQTMLREMADAFIEQNADKGNVTIEIGVQSESSAKDTVLADPESAADVFA”, the “soluble fraction (log2)” value is -0.106. Consider “HMSWRWVPVSGAYTTSALEAAGLTRAFDDQAAAEEWLGLFFDDLLREGVGEVSLYEEDRLVYGPMSL”, for which the “soluble fraction (log2)” value was -2.33. Regarding “HMSYANVEWRDFLNSLDEKYRIVVILYYVQGFKTREIAEILQINQSTVRGRLAKAREKLEQQYN”, the “soluble fraction (log2)” value is -1.13. “HMSYFIFDGVLNLGKQYELKGEESSHITKSRRLRPGDSFLIQDQEGQRFEAILKSFDRNSLIFTPHKPTA”: the “soluble fraction (log2)” value came out at 0.043.

For the sequence “HMSYFNEYEVGDTIRVVNGPLADQISTITAIDKEKGLVNISTVFFGRENNVQVSINDIEKYN”, the “soluble fraction (log2)” value is -0.903.

Turning to “HMSYGDLTGRTVVITGASKGIGARASRVLAQAGASVVGLARSVDELTALKYDLENDGLSFDFG”, the “soluble fraction (log2)” value is at least 0.43. As for “HMSYKYYSTERPLMPGSFPKPQGNTVLNIENFNDRSYVGKIGREAWGFIEYEKPISPVLLDDYELVAA”, the figure is at least 0.43; as for “HMSYLELENLAEDIKATYDNLSTDLREVFRLSDIEGLSYEEISNKMNIPIGTVRSRLHRARETLLRIFNN”, -1.22; as for “HMSYPTAVTQTTLNVRTGPGTQYERLGAFVENTEVIVLTRQPEWIQVRGMSGDKAIIGWVSARYLQMNP”, 0.18. On to “HMSYQNKLNYLINAFGGADNFQKLLGVGPSAISNYKSRKHLPLNQAKRLSKIAPQFGFSLDPHSLQIST”, for which the “soluble fraction (log2)” value was 0.0613. Turning to “HMSYQSYDKVVGDTFFEANLKAESKFGKGNFEIISTRRVKHPIYLGFGHKELVELTIGIHDP”, the “soluble fraction (log2)” value is -0.302. In the case of “HMSYTAYLSQELGDMSREIQSELLKKGYNGSSSFTIVRTYMGSSVKFSVYNANNGELITSKTINM”, the “soluble fraction (log2)” value was -0.306. Then “HMSYTDIILKMSNVNFLTKVNFTNSEKNKNIKNGNFLIKKGKNRITAAFDYKDNELVISKSNLRNTFL”, with -1.22.

The values above are taken from the domain aggregation screens of Martell et al. (2025).
